# Assays:
# Assay in all cases: NMR titration
# MLL CXXC Q1187A = MLL CXXC Q1187A (human, UniProt Q03164 1147-1203, Q1187A)
# MLL CXXC M1200A = MLL CXXC M1200A (human, UniProt Q03164 1147-1203, M1200A)
# MLL CXXC domain WT = MLL CXXC domain WT (human, UniProt Q03164 1147-1203)
# MLL CXXC C1188A = MLL CXXC C1188A (human, UniProt Q03164 1147-1203, C1188A)
# MLL CXXC L1197A = MLL CXXC L1197A (human, UniProt Q03164 1147-1203, L1197A)
# MLL CXXC R1150A = MLL CXXC R1150A (human, UniProt Q03164 1147-1203, R1150A)
# MLL CXXC R1150A, sequence (Q03164 1147-1203 R1150A): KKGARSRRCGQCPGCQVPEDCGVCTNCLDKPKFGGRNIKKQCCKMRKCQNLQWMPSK
# MLL CXXC C1188A, sequence (Q03164 1147-1203 C1188A): as the sequence (Q03164 1147-1203 R1150A) above, with A4R, C42A counted along it
# MLL CXXC M1200A, sequence (Q03164 1147-1203 M1200A): as the sequence (Q03164 1147-1203 R1150A) above, with A4R, M54A counted along it
# MLL CXXC Q1187A, sequence (Q03164 1147-1203 Q1187A): as the sequence (Q03164 1147-1203 R1150A) above, with A4R, Q41A counted along it
# MLL CXXC L1197A, sequence (Q03164 1147-1203 L1197A): as the sequence (Q03164 1147-1203 R1150A) above, with A4R, L51A counted along it
# MLL CXXC domain WT, sequence (Q03164 1147-1203): as the sequence (Q03164 1147-1203 R1150A) above, with A4R counted along it
binder,measurement,setting,value
DNApal (dsDNA) DNA 1: CCCTGCGCAGGG DNA 2: CCCTGCGCAGGG,binding signal,MLL CXXC Q1187A,6 fold higher Kd vs WT
same,binding result,MLL CXXC M1200A,binds
same,Kd,MLL CXXC domain WT,44 µM
same,binding result,MLL CXXC C1188A,binds
same,binding signal,MLL CXXC L1197A,4 fold decrease in binding vs WT
same,binding signal,MLL CXXC R1150A,5 fold decrease in binding vs WT

# Source: article PMC2908503
